Assay results from US20170151339A1 (priority 2014, published 2017).
Where a SMILES comes first, the peptide text is derived from it. Bridges are numbered along the chain shown (N, C = ends). [ ]: non-standard residue; d: D form. The star is where a group is joined. X1 = COc1cc2cc(c1Cl)N(C)C(=O)[C@H](OC(=O)[C@H](C)N(C)C(=O)CCS*)[C@]1(C)O[C@H]1[C@H](C)[C@@H]1C[C@@](O)(NC(=O)O1)[C@H](OC)/C=C/C=C(\C)C2; Thr(ol) = C[C@@H](O)[C@H](N)CO

Experiments:
[1] = test system: NCI-H524 (ATCC) human lung cancer cells; type: cell-based; details: for IC50: treated 2 hours, further incubated 70 hours
Protocol: Conjugates were assessed in an in vitro assay evaluating inhibition of cell proliferation. NCI-H524 (ATCC) human lung cancer cells were plated in 96 well, V-bottomed plates (Costar) at a concentration of 5,000 cells/well and 24 hours later were treated with compound for 2 hours and further incubated 70 hours. Compound starting dose was 20 μM and three fold serial dilutions were done for a total of ten points. After 2 hours of treatment, cells were spun down, the drug containing media was removed, and fresh complete medium was added and used to resuspend the cells, which were spun again. After removal of the wash media, the cells were resuspended in complete medium, then transferred into white walled, flat bottomed 96 well plates. […] Proliferation was measured using CellTiter Glo reagent using the standard protocol (Promega) and a Glomax multi+detection system (Promega). Percent proliferation inhibition was calculated using the following formula: % inhibition=(control−treatment)/control*100. Control is defined as vehicle alone. IC50 curves were generated using the nonlinear regression analysis (four parameter) with GraphPad Prism 6.

[2] = Rat pharmacokinetics of nanoparticle formulations of 1 and 2; type: in vivo; details: rats, 1 mg/kg IV bolus, plasma, dose normalized
Protocol: Nanoparticles are typically formulated for in vivo delivery in 10% sucrose and free drug formulations varied, but are typically dosed in 10% Solutol®/10% sucrose, or physiological saline. In this example conjugate 1 without nanoparticle formulation was dosed as a solution in 20% propyleneglycol/80% aqueous sucrose (10%).
(§1) For rat pharmacokinetic studies using nanoparticles as described herein, a 0.1 mg/mL solution was dosed at 10 mL/kg such that a 1 mg/kg IV bolus dose was introduced by tail vein injection into rats. Following compound administration, blood was collected at 0.083 hours, 0.25 hours, 0.5 hours, 1 hour, 2 hours, 4 hours, 8 hours, and 24 hours post dose into lithium heparin coated vacuum tubes. Tubes were inverted for 5 minutes and then placed on wet ice until centrifuged for 5 minutes at 4° C. at 6000 rpm. Plasma was harvested, frozen at −80° C. and shipped to for bioanalysis on dry ice.
50 uL of rat plasma was precipitated with 300 uL of DMF and the resulting supernatant was measured for compound content by LC-MS/MS electrospray ionization in the positive mode.
Representative dose normalized rat pharmacokinetic curves for conjugate 1 and nanoparticle formulations of conjugate 1 are shown in FIG. 3.
Representative dose normalized rat pharmacokinetic curves for conjugate 2 and nanoparticle formulations of conjugate 2 are shown in FIG. 4.

[3] = Pharmacokinetics of cabazitaxel-RGD nanoparticles in rats; type: in vivo; details: rat, 1 mg/kg IV bolus, plasma
Protocol: Nanoparticles are typically formulated in 10% sucrose and free drug formulations varied, but are typically dosed in 10% SOLUTOL®/10% sucrose, or physiological saline.
as §1, with “PK studies,” for “rat pharmacokinetic studies using nanoparticles as described herein,”, “rats” for “rats.”, “h,” for “hours,”, “h,” for “hour,”, “h” for “hours”
50 uL of rat plasma were precipitated with 300 uL of DMF and the resulting supernatant was measured for compound content by LC-MS/MS electrospray ionization in the positive mode.

[4] = Tolerability in rat PK study of cabazitaxel-RGD nanoparticles; type: in vivo; details: rats, 1 mg/kg dose IV
Protocol: as §1, with “PK studies,” for “rat pharmacokinetic studies using nanoparticles as described herein,”, “rats” for “rats.”, “h,” for “hours,”, “h,” for “hour,”, “h” for “hours”

[5] = Solubility in aqueous media containing Tween 80; type: physicochemical; details: aqueous Tween 80
Text: In certain formulations, conjugate 1′ was used without any changes to its native lipophilicity (free conjugate). […] The tendency of conjugate 1 to retain in the nanoparticle despite a high aqueous solubility in Tween/water could be due to the high lipophilicity of cabazitaxel and its compatibility/miscibility with the polymeric matrix. The presence of leucine, proline, tryptophan and tyrosine in the LHRH peptide may also assist in the interaction of the conjugate with the polymeric matrix.
In certain formulations, conjugate 1 was used without any changes to its native lipophilicity (free conjugate). […] Without committing to any particular theory, the tendency of conjugate 1 to retain in the nanoparticle despite a high aqueous solubility in Tween®/water could be due to the high lipophilicity of cabazitaxel and its compatibility/miscibility with the polymeric matrix. The presence of two phenylalanine amino acids in the octreotide peptide may also assist in the interaction of the conjugate with the polymeric matrix.
In some formulations, conjugate 2 was used without any changes to its native lipophilicity (free conjugate). […] The tendency of 2 to be retained in the nanoparticle was reduced compared to 1.

[6] = Rat pharmacokinetics of nanoparticle formulations of 1′; type: in vivo; details: rats, 1 mg/kg IV bolus, plasma, dose normalized, Table 3
Protocol: Nanoparticles described herein were typically formulated in 10% sucrose and free drug formulations were generally formulated typically dosed in 10% Solutol®/l 0% sucrose, or physiological saline.
as §1, with “For” for “For rat”, “studies,” for “studies using nanoparticles as described herein,”, “post-dose” for “post dose”
50 uL aliquots of rat plasma were precipitated with 300 uL of DMF and the resulting supernatant was measured for compound content by LC-MS/MS electrospray ionization in the positive mode.

In the case of `CC[C@H](C)[C@@H]([C@@H](CC(=O)N1CCC[C@H]1[C@H](OC)[C@@H](C)C(=O)N[C@H](C)[C@@H](O)c1ccccc1)OC)N(C)C(=O)[C@@H](NC(=O)[C@H](C(C)C)N(C)C(=O)OCc1ccc(NC(=O)[C@H](CCCNC(N)=O)NC(=O)[C@@H](NC(=O)CCCCCN2C(=O)CC(SCCC(=O)N[C@H](Cc3ccccc3)C(=O)N[C@H]3CSSC[C@@H](C(=O)N[C@H](CO)[C@@H](C)O)NC(=O)[C@H]([C@@H](C)O)NC(=O)[C@H](CCCCN)NC(=O)[C@@H](Cc4c[nH]c5ccccc45)NC(=O)[C@H](Cc4ccccc4)NC3=O)C2=O)C(C)C)cc1)C(C)C` (stereo partly drawn) [Conjugate 5], the IC50 [1] is reported as 433 nM.

For `CCCCN(CCSSCCC(=O)N[C@H](Cc1ccccc1)C(=O)N[C@H]1CSSC[C@@H](C(=O)N[C@H](CO)[C@@H](C)O)NC(=O)[C@H]([C@@H](C)O)NC(=O)[C@H](CCCCN)NC(=O)[C@@H](Cc2c[nH]c3ccccc23)NC(=O)[C@H](Cc2ccccc2)NC1=O)C(=O)O[C@@H](C(=O)O[C@H]1C[C@@]2(O)[C@@H](OC(=O)c3ccccc3)[C@@H]3[C@]4(OC(C)=O)CO[C@@H]4C[C@H](OC)[C@@]3(C)C(=O)[C@H](OC)C(=C1C)C2(C)C)[C@@H](NC(=O)OC(C)(C)C)c1ccccc1` [Conjugate 3], the IC50 [1] was > 20000 nM.

Compound `COc1cccc2c1C(=O)c1c(O)c3c(c(O)c1C2=O)C[C@@](O)(C(=O)COC(=O)CCCC(=O)N[C@H](Cc1ccccc1)C(=O)N[C@H]1CSSC[C@@H](C(=O)N[C@H](CO)[C@@H](C)O)NC(=O)[C@H]([C@@H](C)O)NC(=O)[C@H](CCCCN)NC(=O)[C@@H](Cc2c[nH]c4ccccc24)NC(=O)[C@H](Cc2ccccc2)NC1=O)C[C@@H]3O[C@H]1C[C@H](N)[C@H](O)[C@H](C)O1` [Example 2] has an AUC(0-inf) ([2]; conjugate 2 and its nanoparticles, Table 12) of 14.3 µM·h.

For `CCCCN(CCSSC[C@@H]1NC(=O)[C@@H](Cc2ccccc2)NC(=O)[C@H](CC(=O)O)NC(=O)CNC(=O)[C@H](CCCNC(=N)N)NC1=O)C(=O)O[C@@H](C(=O)OC1C[C@@]2(O)[C@@H](OC(=O)c3ccccc3)[C@@H]3[C@]4(OC(C)=O)CO[C@@H]4C[C@H](OC)[C@@]3(C)C(=O)[C@H](OC)C(=C1C)C2(C)C)[C@@H](NC(=O)OC(C)(C)C)c1ccccc1` (stereo partly drawn) [BT-568], the AUC [3] was 5.3 µM·h, the “tolerability observations post dose” value [4] was “lethargy and labored breathing were observed immediately post dose in all three rats” and the mortality ([4]; three rats) was “one of the three animals died”.

Compound `COc1cc2cc(c1Cl)N(C)C(=O)C[C@H](OC(=O)[C@H](C)N(C)C(=O)CCSSCCC(=O)NCCOCCOCCOCCOCCOCCOCCOCCOCCC(=O)N[C@H](Cc1ccccc1)C(=O)N[C@H]1CSSC[C@@H](C(=O)N[C@H](CO)[C@@H](C)O)NC(=O)[C@H]([C@@H](C)O)NC(=O)[C@H](CCCCN)NC(=O)[C@@H](Cc3c[nH]c4ccccc34)NC(=O)[C@H](Cc3ccccc3)NC1=O)[C@]1(C)O[C@H]1[C@H](C)[C@@H]1C[C@@](O)(NC(=O)O1)[C@H](OC)/C=C/C=C(\C)C2` [Conjugate 6] has an IC50 [1] of 234 nM.

Compound `COc1cc2cc(c1Cl)N(C)C(=O)[C@H](OC(=O)[C@H](C)N(C)C(=O)CCSSC[C@H](N)C(=O)N[C@@H](CCCCN)C(=O)N[C@@H](CCCCN)C(=O)N[C@@H](CCCCN)C(=O)N[C@@H](CCCCN)C(=O)N[C@H](Cc1ccccc1)C(=O)N[C@H]1CSSC[C@@H](C(=O)N[C@H](CO)[C@@H](C)O)NC(=O)[C@H]([C@@H](C)O)NC(=O)[C@H](CCCCN)NC(=O)[C@@H](Cc3c[nH]c4ccccc34)NC(=O)[C@H](Cc3ccccc3)NC1=O)[C@]1(C)O[C@H]1[C@H](C)[C@@H]1C[C@@](O)(NC(=O)O1)[C@H](OC)/C=C/C=C(\C)C2` [Conjugate 7] (H-C(X1)KKKK[dF]CF[dW]KTC[Thr(ol)]; disulfide 7-12) has an IC50 [1] of 955 nM.

For `CO[C@H]1C(=O)[C@]2(C)[C@@H](OC)C[C@H]3OC[C@@]3(OC(C)=O)[C@H]2[C@H](OC(=O)c2ccccc2)[C@]2(O)C[C@H](OC(=O)[C@H](OC(=O)OCCSSCCC(=O)N[C@H](Cc3ccccc3)C(=O)N[C@H]3CSSC[C@@H](C(=O)N[C@H](CO)[C@@H](C)O)NC(=O)[C@H]([C@@H](C)O)NC(=O)[C@H](CCCCN)NC(=O)[C@@H](Cc4c[nH]c5ccccc45)NC(=O)[C@H](Cc4ccccc4)NC3=O)[C@@H](NC(=O)OC(C)(C)C)c3ccccc3)C(C)=C1C2(C)C` [Conjugate 1], the solubility [5] was > 7000 µg/mL, the “solubility in aqueous media containing surfactant” value [5] was “high solubility” and the AUC(0-inf) [6] was 2.19 µM·h. The IC50 [1] was 110 nM and the AUC(0-inf) ([2]; conjugate 1 and its nanoparticles, Table 11) was 18.3 µM·h.

Work on `COc1cc2cc(c1Cl)N(C)C(=O)C[C@H](OC(=O)[C@H](C)N(C)C(=O)CCSSCCC(=O)N[C@H](Cc1ccccc1)C(=O)N[C@H]1CSSC[C@@H](C(=O)N[C@H](CO)[C@@H](C)O)NC(=O)[C@H]([C@@H](C)O)NC(=O)[C@H](CCCCN)NC(=O)[C@@H](Cc3c[nH]c4ccccc34)NC(=O)[C@H](Cc3ccccc3)NC1=O)[C@]1(C)O[C@H]1[C@H](C)[C@@H]1C[C@@](O)(NC(=O)O1)[C@H](OC)/C=C/C=C(\C)C2` [Conjugate 4] yielded an IC50 [1] of 229 nM.

With `C[C@@H](O)[C@@H]1NC(=O)[C@H](CCCCN)NC(=O)[C@@H](Cc2c[nH]c3ccccc23)NC(=O)[C@H](Cc2ccccc2)NC(=O)[C@@H](NC(=O)[C@H](N)Cc2ccccc2)CSSC[C@@H](C(=O)N[C@H](CO)[C@@H](C)O)NC1=O` [Octreotide, reference compound] the “effect on cell proliferation” value ([1]; octreotide alone) was “no significant effect”.
